In patent publication US20250051455A1 (Hoffmann-La Roche, published 2025):
Positions count from the first letter of the chain named. Values belong to the binder of their own block, whether it stands above or below them.

Legend:
[1] = target: T1, human HLA-G expressed on cells (JEG3 natural; SKOV3 HLA-G+ and PA-TU-8902 HLA-G+ transfectants) (human); assay: flow cytometry, JEG3 cells pre-incubated with antibody (40 µg/ml final); competitor ILT2-Fc chimera
T1 construct: On cells HLA-G stands in an MHC class I complex with beta-2 microglobulin and peptide; these are not specified; also called cell surface HLA-G; HLAG on JEG-3 cells
Description: For analysis, JEG3 cells (ATCC HTB36) were stained with ILT2-Fc fusion proteins (control=no inhibition) with or without pre-incubation with different anti-HLA-G antibodies. For the pre-incubation with anti-HLA-G antibodies 25 μl/well of the cell suspension was transferred into a polypropylene 96-Well V-bottom plate and prechilled in the at 4° C. for 10 min. Anti HLA-G antibodies or reference antibodies (G233, MEM-G/9 or 87G) were diluted in staining buffer to a 2-fold concentration of 80 μg/ml and 25 μl/well of the antibody solution was added to the prepared cells and incubated for 1 h at 5° C. Cells were washed twice with 200 μl/well staining buffer with centrifugation at 300 g for 3 min and finally resuspended in 25 μl/well staining buffer.
The detection of human ILT2-Fc Chimera protein (RD #2017-T2-050) to a) JEG3 cells pre-incubated anti HLA-G mAb or b) untreated JEG3 cells as reference was determined as follows: Briefly, the ILT2-Fc or control human IgG (Jackson-Immuno-Research #009-000-003) were diluted in staining buffer to a 2-fold concentration of 20 μg/ml (ILT2) and 25 μl/well of the ILT2-Fc protein solution was added to the prepared cells and incubated for 2 h at 5° C. Cells were again washed twice with 200 μl/well staining buffer the human ILT2-Fcprotein was detected with fluorescent labeled anti human IgG Fc-gamma specific antibody (F(ab′)₂ Fragment Goat Anti-Human IgG, Fcγ fragment specific-FITC, Jackson-Immuno-Research #109-096-008) at a dilution of 10 μg/ml in staining buffer. Cell pellets were resuspended in 50 μl/well detection antibody. After a 1-hour incubation at 5° C. cells were washed twice with staining buffer, resuspended in 70 μl and measured at a FACS Canto II to determine ILT2 binding to JEG 3 cells.

[2] = target: T2, modified human HLA-G β2M MHC class I complex (HLA-G specific amino acids replaced by HLA-A consensus amino … (human)); assay: ELISA, biotinylated degrafted HLA-G on streptavidin plate (no EC50; Max. OD 0.13)
T2 construct: Counter antigen: single-chain fusion of peptide, beta-2 microglobulin and HLA-G in which 14 HLA-G unique surface positions were mutated to an HLA-A consensus; also called degrafted HLA-G; HLA-G-0007
Description: (§1) Streptavidin coated plates (Nunc, MicroCoat #11974998001) were coated with 25 μl/well biotinylated human degrafted HLA-G at a concentration of 250 ng/ml and incubated at 4° C. overnight. After washing (3×90 μl/well with PBST-buffer) 25 μl anti-HLA-G samples (1:3 dilution in OSEP buffer) or rat serum (1:600 dilution in OSEP) were added and incubated 1 h at RT. After washing (3×90 μl/well with PBST-buffer) 25 μl/well of a mixture of goat-anti-rat IgG1-POD (Bethyl #A110-106P), goat-anti-rat IgG2a-POD (Bethyl #A110-109P) and goat-anti-rat IgG2b-POD (Bethyl #A110-111P) 1:10000 in OSEP was added and incubated at RT for 1 h on shaker. After washing (6×90 μl/well with PBST-buffer) 25 μl/well TMB substrate (Roche, 11835033001) was added and incubated until OD 2-3. Measurement took place on a Tecan Safire 2 instrument at 370/492 nm.

[3] = target: T2, modified human HLA-G β2M MHC class I …; assay: ELISA, biotinylated degrafted HLA-G on streptavidin plate (no EC50; Max. OD 0.15)
Description: as §1

[4] = target: T2, modified human HLA-G β2M MHC class I …; assay: ELISA, biotinylated degrafted HLA-G on streptavidin plate (no EC50; Max. OD 0.2)
Description: as §1

[5] = target: T3, recombinant soluble human HLA-G β2M MHC class I complex, monomer (human); assay: competition ELISA, antibody 44 nM; competitor coated ILT4-Fc
T3 construct: His tagged; biotinylated where coated on streptavidin plates, non-biotinylated in SPR; also called HLA-G-0003; wt HLA-G (monomer)
Description: (§2) The ELISA was set up by coating the Fc tagged ILT2 and ILT4 respectively to Maxisorp microtiter plates. After incubation and washing steps, the respective antibodies were added at a concentration of 100 nM. Soluble His tagged monomeric, dimeric or trimeric HLA-G was added to the wells. After incubation and washing steps, detection of bound receptor was carried out by anti-His-antibody-POD conjugates.
(§3) The above tables summarize the blocking of interaction between rec. HLA-G proteins (monomer and oligomers) to its receptors ILT2 and ILT4 by the described HLAG antibodies at a concentration of 110 nM (*HLAG-0090 was tested at a concentration of 44 nM) as assessed by ELISA. Shown are the % inhibitions of the HLA-G/receptor interaction (for ILT2 and ILT4). The less pronounced ILT4 inhibition depends on the major β2M dependent interaction of this receptor.

[6] = target: T4, recombinant soluble human HLA-G β2M MHC class I complex, dimer (human); assay: as above
T4 construct: Non-biotinylated; also called HLA-G Dimer; dimeric HLA-G
Description: as §2, §3

[7] = target: T5, recombinant soluble human HLA-G β2M MHC class I complex, trimer (human); assay: as above
T5 construct: Non-biotinylated; also called HLA-G Trimer; trimeric HLA-G
Description: as §2, §3

[8] = target: T3, recombinant soluble human HLA-G β2M MHC …; assay: competition ELISA, antibody 44 nM; competitor coated ILT2-Fc
Description: as §2, §3

[9] = target: T4, recombinant soluble human HLA-G β2M MHC …; assay: as above
Description: as §2, §3

[10] = target: T5, recombinant soluble human HLA-G β2M MHC …; assay: as above
Description: as §2, §3

B1: HLA-G-0031 (antibody, V domains shown)
VH: QVKLMQSGAALVKPGTSVKMSCNASGYTFTDYWVSWVKQSHGKRLEWVGEISPNSGASNFDENFKDKATLTVDKSTSTAYMELSRLTSEDSAIYYCTRSSHGSFRWFAYWGQGTLVTVSS
VL: AIVLNQSPSSIVASQGEKVTITCRASSSVSSNHLHWYQQKPGAFPKFVIYSTSQRASGIPSRFSGSGSGTSYSFTISRVEAEDVATYYCQQGSSNPYTFGAGTKLELK
notes: Rat monoclonal antibody obtained from CD rats
- Inhibition of ILT2 binding to Jeg3 cells [1]: 95.1%
- binding result [2]: no binding

B2: HLA-G-0039 (antibody, V domains shown)
VH: EVQLLESGGGLVQPGGSLRLSCAASGFTFSSYAMNWVRQAPGKGLEWVSVISGSGVSTYYADSVKGRFTISRDNSRNTLSLQMNSLRAEDTAVYYCAKDGSYNYGYGDYFDYWGQGTLVTVSS
VL: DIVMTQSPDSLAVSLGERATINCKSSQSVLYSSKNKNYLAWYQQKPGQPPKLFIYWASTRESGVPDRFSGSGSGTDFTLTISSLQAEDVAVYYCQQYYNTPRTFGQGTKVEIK
notes: Human antibody from humanized OmniRat (OMT) rats
- Inhibition of ILT2 binding to Jeg3 cells [1]: -72.9%
- binding result [2]: no binding

Further lines, results first:

- Inhibition of ILT2 binding to Jeg3 cells [1]: -76.7%
- binding result [3]: no binding
B3: HLA-G-0041 (antibody, V domains shown)
VH: B2 VH with S31T, A33G, N35S, S54G, R76K, S80Y, S85R
VL: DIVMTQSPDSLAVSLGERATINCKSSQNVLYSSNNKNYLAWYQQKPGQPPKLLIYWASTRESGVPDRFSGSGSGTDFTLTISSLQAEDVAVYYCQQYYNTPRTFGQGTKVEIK
notes: as for B2

- Inhibition of ILT2 binding to Jeg3 cells [1]: 91.8%
- binding result [4]: no binding
- % inhibition of ILT4 binding [5]: 31%
- % inhibition of ILT4 binding [6]: 31%
- % inhibition of ILT4 binding [7]: 47%
- % inhibition of ILT2 binding [8]: 92%
- % inhibition of ILT2 binding [9]: 100%
- % inhibition of ILT2 binding [10]: 99%
B4: HLA-G-0090 (antibody, V domains shown)
VH: QVQLQQSGPGLLKPSQTLSLTCAISGDSVSSNRAAWNWIRQSPSRGLEWLGRTYYRSKWYNDYAVSVQGRITLIPDTSKNQFSLRLNSVTPEDTAVYYCASVRAVAPFDYWGQGVLVTVSS
VL: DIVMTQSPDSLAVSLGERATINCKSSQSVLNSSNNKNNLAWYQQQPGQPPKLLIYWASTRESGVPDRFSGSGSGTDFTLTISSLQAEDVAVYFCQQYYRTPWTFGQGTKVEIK
notes: as for B2
